For data set [1], the system named is COc1cc(C=NN=Cc2cc(OC)c(O)c(OC)c2)cc(OC)c1O. Nature of the data set: purified protein. The following applies: optimal pH 6.0, 90°C.
A further data set deals with COc1ccccc1O. Nature of the data set: purified protein. The following applies: optimal pH 7.5, 90°C.

For the substance “LacTT (Thermus thermophilus SG0.5JP17-16)”, in data set [1], the Km (usually the substrate concentration at which the rate is half of its maximum) came to 27.0 ± 1.5 µM; the kcat (commonly the number of substrate molecules converted per active site and unit of time at saturation) came out at 1 ± 0.061 s⁻¹; the catalytic efficiency (kcat/Km) (in general, the second-order rate constant that governs catalysis at low substrate concentration) came out at 37000 ± 2700 M⁻¹ s⁻¹. In addition, in the data set on COc1ccccc1O, the Km was 363.3 ± 29.1 µM, the kcat was 4.34 ± 0.216 s⁻¹ and the kcat/Km was 12000 ± 1000 M⁻¹ s⁻¹.

Source of the values: article PMC4366370, “Overexpression of a Novel Thermostable and Chloride-Tolerant Laccase from Thermus thermophilus SG0.5JP17-16 in Pichia pastoris and Its Application in Synthetic Dye Decolorization” (PLoS ONE, 2015).
